Data: patent US12404345B2, “Humanized antibodies against iRHOM2” (SCIRHOM GMBH, priority 2021, dated 2025)

Tests used:
[1] = biological target: T1, human iRhom2 variant hiR2-FL-K536A-T7 (Homo sapiens, UniProt Q6PJF5, K536A); assay: FACS epitope mapping on MEF-DKO-hiR2-FL-K536A-T7 cells; format: binding; details: antibody at 3 μg/ml, compared with MEF-DKO-hiR2-FL-WT-T7 cells
T1 construct: expressed in transfected cells; host or cells: immortalized iRhom1/2-/- DKO mouse embryonic fibroblasts, pMSCV retroviral infection
T1 sequence (Q6PJF5 1-856 K536A): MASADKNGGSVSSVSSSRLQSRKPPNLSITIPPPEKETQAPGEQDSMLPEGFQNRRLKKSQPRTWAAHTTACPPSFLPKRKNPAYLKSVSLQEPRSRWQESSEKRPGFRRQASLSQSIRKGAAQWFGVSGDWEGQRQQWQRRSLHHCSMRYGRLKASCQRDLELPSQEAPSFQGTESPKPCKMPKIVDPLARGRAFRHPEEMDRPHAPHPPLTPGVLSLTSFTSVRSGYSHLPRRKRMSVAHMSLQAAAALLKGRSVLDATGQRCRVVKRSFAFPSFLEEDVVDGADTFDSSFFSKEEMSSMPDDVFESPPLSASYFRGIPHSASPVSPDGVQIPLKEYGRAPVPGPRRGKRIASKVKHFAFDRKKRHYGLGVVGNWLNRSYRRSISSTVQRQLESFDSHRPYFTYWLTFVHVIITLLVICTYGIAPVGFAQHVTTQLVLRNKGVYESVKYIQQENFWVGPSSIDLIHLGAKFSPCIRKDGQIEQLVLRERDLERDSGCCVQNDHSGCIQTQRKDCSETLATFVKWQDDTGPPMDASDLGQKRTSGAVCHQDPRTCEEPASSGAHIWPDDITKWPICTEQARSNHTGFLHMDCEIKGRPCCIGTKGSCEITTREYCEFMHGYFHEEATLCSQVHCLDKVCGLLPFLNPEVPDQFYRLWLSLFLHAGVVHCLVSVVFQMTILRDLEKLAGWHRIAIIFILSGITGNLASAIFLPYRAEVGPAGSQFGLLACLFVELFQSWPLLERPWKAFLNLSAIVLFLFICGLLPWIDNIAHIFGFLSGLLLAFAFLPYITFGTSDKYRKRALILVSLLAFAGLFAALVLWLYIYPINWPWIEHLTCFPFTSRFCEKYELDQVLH
From the text: This example describes the generation of iRhom1/2−/− DKO MEF populations expressing the 137 single amino acid substitution or deletion variants as well as their characterization in terms of cell surface localization and functional activity as indicators of proper protein conformation. Subsequently, binding analyses of the humanized antibodies 16-B-03, 16-B-05, 16-B-07, 23-B-04, 42-B-02 and 42-B-04 of the invention on the entire panel of 137 engineered MEF populations expressing human iRhom2 variants with single amino acid substitutions or deletions are described.
In brief, on day 1, Phoenix-ECO cells (American Type Culture Collection, USA) were seeded on 6-well tissue culture plates (Greiner, Germany) in standard growth medium at 8×10^5 cells per well and kept overnight at 37° C., 5% CO2. On day 2, the medium was replaced by fresh medium supplemented with chloroquine (Sigma-Aldrich, USA) at a final concentration of 25 μM. […]

[2] = biological target: T2, endogenous iRhom2 on RPMI-8226 cells (Homo sapiens, UniProt Q6PJF5); assay: FACS binding to RPMI-8226 cells endogenously expressing iRhom2; details: antibody at 3 μg/ml
T2 construct: RPMI-8226 cells, a human B lymphocytic cell line endogenously expressing iRhom2; host or cells: RPMI-8226
T2 sequence (Q6PJF5 1-856): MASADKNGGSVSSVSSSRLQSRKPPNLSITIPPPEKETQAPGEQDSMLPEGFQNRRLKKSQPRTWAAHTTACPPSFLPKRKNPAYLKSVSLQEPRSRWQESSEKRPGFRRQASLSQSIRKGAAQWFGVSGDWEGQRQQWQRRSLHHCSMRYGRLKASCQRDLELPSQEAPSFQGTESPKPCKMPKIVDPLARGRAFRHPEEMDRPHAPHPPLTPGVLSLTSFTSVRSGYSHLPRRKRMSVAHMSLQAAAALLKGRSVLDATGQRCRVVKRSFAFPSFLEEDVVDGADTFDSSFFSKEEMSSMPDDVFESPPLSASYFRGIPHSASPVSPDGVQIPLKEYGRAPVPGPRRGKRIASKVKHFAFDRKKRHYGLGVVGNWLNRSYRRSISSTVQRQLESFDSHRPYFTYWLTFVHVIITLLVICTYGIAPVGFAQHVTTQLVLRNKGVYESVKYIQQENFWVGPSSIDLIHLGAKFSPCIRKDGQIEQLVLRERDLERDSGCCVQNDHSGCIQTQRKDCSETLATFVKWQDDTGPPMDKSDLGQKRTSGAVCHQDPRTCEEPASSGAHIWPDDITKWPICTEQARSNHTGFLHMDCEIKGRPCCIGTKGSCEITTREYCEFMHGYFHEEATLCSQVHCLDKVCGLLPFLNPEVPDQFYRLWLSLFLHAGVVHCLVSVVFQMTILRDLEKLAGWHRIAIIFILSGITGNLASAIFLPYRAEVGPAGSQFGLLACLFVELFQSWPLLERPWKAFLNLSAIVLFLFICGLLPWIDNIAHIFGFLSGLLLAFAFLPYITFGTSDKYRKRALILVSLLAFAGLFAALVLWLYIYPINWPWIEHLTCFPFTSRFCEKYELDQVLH
Procedure: In this study, binding specificity analyses of the humanized antibody 42-B-02 as a representative example of the antibodies of the invention in cell lines endogenously expressing iRhom2 were performed. The studies were conducted on RPMI-8226 cells, a human B lymphocytic cell line endogenously expressing iRhom2 but being endogenously negative for iRhom1, on THP-1 cells, a human monocytic cell line endogenously expressing both iRhom2 and iRhom1 and on RH-30 cells, a human […] cell line endogenously negative for iRhom2 but endogenously expressing iRhom1.
In brief, human RPMI-8226 cells (Deutsche Sammlung von Mikroorganismen und Zellkulturen, Germany), THP-1 cells (American Type Culture Collection, USA) and RH-30 cells (Deutsche Sammlung von Mikroorganismen und Zellkulturen, Germany) were harvested with 10 mM EDTA in PBS, washed and resuspended in FACS buffer (PBS, 3% FBS, 0.05% sodium azide), and seeded in Nunc U-bottom 96-well plates (Thermo Fisher Scientific, USA) at approximately 2×10^5 cells per well. In order to pellet cells and remove supernatants, the plates were centrifuged at 1,500 rpm and 4° C. for 3 minutes. […] Finally, cells were resuspended in 150 μl per well of FACS buffer and analyzed using a BD Accuri™ C6 Plus flow cytometer (Becton Dickinson, Germany).

effect of substitution of lysine 536 of human iRhom2 by alanine on antibody binding (MEF-DKO-hiR2-FL-K536A-T7 cells) [1]: strongly impairs | binding to RPMI-8226 cells (endogenously expressing iRhom2, negative for iRhom1) [2]: strong binding
B1: 42-B-02: humanized antibody binding human iRhom2; HCVD SEQ ID NO 33, LCVD SEQ ID NO 37 (antibody, V domains shown)
VH: QVTLRESGPALVKPTQTLTLTCTFSGFSLSTFGRGVGWIRQPPGKALEWLAHIWWDDEKYYNSALKSRLTISKDTSKNQVVLTITNMDPVDTATYYCARIQNYGSNYWYFDVWGQGTLVTVSS
VL: AIQLTQSPSSLSASVGDRVTITCRASSRISYMFWYQQKPGKAPKVLIYDTSNLASGVPSRFSGSGSGTDYTLTISSLQPEDFATYYCQQWNSYPLTFGQGTKLEIK
modifications: antibody sequences
